Assay results from US20180318438A1, “ANTIBODY DRUG CONJUGATES OF KINESIN SPINDEL PROTEIN (KSP) INHIBITORS WITH ANTI-TWEAKR-ANTIBODIES” (Bayer Pharma Aktiengesellschaft, priority 2015, published 2018).
Residue numbers refer to the chain shown, from its start.

How the values were obtained:
Caco-2 cells = assay: Cell permeability, flux assay using Caco-2 cells; conditions: basal to apical, 2 h
[1] = system: NCI-H292: human mucoepidermoid lung carcinoma cells; assay: Cytotoxicity, MTT assay; assay type: cell-based; conditions: NCI-H292, 96 h, metabolites
Procedure: The cells were cultivated according to the standard method using the growth media listed under C-1. […] The cells were then incubated in an incubator at 37° C. and 5% carbon dioxide. […] To this end, the MTT reagent was incubated with the cells for 4 h, followed by lysis of the cells overnight by addition of the detergent. […] The measured data were used to calculate the IC50 of the growth inhibition using the DRC (dose response curve). The proliferation of cells which were not treated with test substance but were otherwise identically treated was defined as the 100% figure.

[2] = system: KPL4: human breast cancer cell line; assay: Cytotoxicity, MTT assay; assay type: cell-based; conditions: KPL4, 96 h, metabolites, KPL4 cells
Procedure: The cells were cultivated according to the standard method using the growth media listed under C-1. The test is carried out by detaching the cells with a solution of Accutase in PBS (Biochrom AG #L2143), pelleting, resuspending in culture medium, counting and sowing into a 96-well culture plate with white bottom (Costar #3610) (NCI H292: 2500 cells/well, KPL-4: 1200 cells/well, SK-HEP-1: 1500 cells/well in a total volume of 100 μl). The cells were then incubated in an incubator at 37° C. and 5% carbon dioxide. After 48 h, the medium was replaced. The metabolites in 10 μl of culture medium in concentrations from 10^−5M to 10^−13M were then pipetted to the cells (in triplicate), and the assay was then incubated in an incubator at 37° C. and 5% carbon dioxide. […] To this end, the MTT reagent was incubated with the cells for 4 h, followed by lysis of the cells overnight by addition of the detergent. The dye formed was detected at 570 nm (Infinite M1000 pro, Tec an). The measured data were used to calculate the IC50 of the growth inhibition using the DRC (dose response curve). The proliferation of cells which were not treated with test substance but were otherwise identically treated was defined as the 100% figure.

[3] = target: T1, TWEAKR on human cells (NCI-H292, 786-O, A498, SK-HEP-1, HEK293) (human, UniProt Q9NP84 28-129); assay: cell-based or functional assay
T1 sequence: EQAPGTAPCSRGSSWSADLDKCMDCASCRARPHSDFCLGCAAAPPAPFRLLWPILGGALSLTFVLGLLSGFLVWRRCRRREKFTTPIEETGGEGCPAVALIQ

[4] = target: T1, TWEAKR on human cells (NCI-H292, 786-O, …); assay: flow cytometry on NCI-H292 cells, dose curve from 10 ug/ml in 1:5 steps, anti-kappa-FITC secondary
[5] = target: T1, TWEAKR on human cells (NCI-H292, 786-O, …); assay: flow cytometry on SK-HEP-1 cells, dose curve from 10 ug/ml in 1:5 steps, anti-kappa-FITC secondary
[6] = target: T2, TPP-2305, hTNFRSF12 amino acids 28-80 (extracellular domain of TWEAKR) (human, UniProt Q9NP84 28-80); assay: SPR (Biacore T200), antibody captured by anti-human Fc on CM5, TWEAKR extracellular domain 3.9-500 nM as analyte, 25 C; monovalent KD
T2 construct: Bought recombinant antigen (Fitzgerald 30R-AT080); also called TWEAKR extracellular domain; 30R-AT080 (Fitzgerald)
T2 sequence: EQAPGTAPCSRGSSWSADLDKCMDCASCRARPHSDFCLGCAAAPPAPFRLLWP

[7] = target: T2, TPP-2305, hTNFRSF12 amino acids 28-80 …; assay: SPR (Biacore T200), antibody captured by anti-human Fc on CM5, TWEAKR extracellular domain 3.9-500 nM as analyte, 25 C

## CC(C)(C)[C@H](c1cc(-c2cc(F)ccc2F)cn1Cc1ccccc1)N(CC[C@H](N)C(=O)N[C@H](CCC(=O)O)C(=O)O)C(=O)CO.O=C(O)C(F)(F)F [Example M25, N-{(2S)-2-Amino-4-[{(1R)-1-[1-benzyl-4-(2,5-difluorophenyl)-1H-pyrrol-2-yl]-2,2-dimethylpropyl}(glycoloyl)amino]butanoyl}-L-glutamic acid/trifluoroacetic acid (1:1)]
Caco-2 cells
  Papp (B-A): 0.81 ×10⁻⁶ cm/s

## CC(C)(C)[C@H](c1cc(-c2cc(F)ccc2F)cn1Cc1ccccc1)N(CC[C@H](N)C(=O)NCCNC(=O)CNC(=O)CC(SC[C@H](N)C(=O)O)C(=O)O)C(=O)CO (stereo partly drawn) [Example M13, 4-[(2-{[2-({(2S)-2-Amino-4-[{(1R)-1-[1-benzyl-4-(2,5-difluorophenyl)-1H-pyrrol-2-yl]-2,2-dimethylpropyl}(glycoloyl)amino]butanoyl}amino)ethyl]amino}-2-oxoethyl)amino]-2-{[(2R)-2-amino-2-carboxyethyl]sulphanyl}-4-oxobutanoic acid/trifluoroacetic acid (1:1)]
[1]
  IC50: 152 nM
[2]
  IC50: 169 nM

## CC(C)(C)[C@H](c1cc(-c2cc(F)ccc2F)cn1Cc1ccccc1)N(CC[C@H](N)C(=O)NCCNC(=O)CNC(=O)CC(SC[C@H](N)C(=O)O)C(=O)O)C(=O)CO.O=C(O)C(F)(F)F (stereo partly drawn) [Example M26, 4-[(2-{[2-({(2S)-2-Amino-4-[{(1R)-1-[1-benzyl-4-(2,5-difluorophenyl)-1H-pyrrol-2-yl]-2,2-dimethylpropyl}(glycoloyl)amino]butanoyl}amino)ethyl]amino}-2-oxoethyl)amino]-2-{[(2R)-2-amino-2-carboxyethyl]sulphanyl}-4-oxobutanoic acid/trifluoro acetic acid (1:1)]
Caco-2 cells
  Papp (B-A): 1.3 ×10⁻⁶ cm/s

B1: TPP-7007 (antibody, human IgG1, kappa, V domains shown)
VH: QVQLVQSGAEVKKPGASVKVSCKASGYTFTDFIIAWVKQAPGQGLEWIGEIYPGTGRTYYSEKFRGKATLTADTSTSTAYMELSSLRSEDTAVYFCARRTIYYDYDGDYWGQGTLVTVSS
VL: DIVMTQSPLSLPVTPGEPASISCRSSKSLLHSNGITYLYWYLQKPGQSPQLLIYQMSNLASGVPDRFSGSGSGTDFTLKISRVEAEDVGVYYCAHNLELPWTFGQGTKVEIKR
notes: also called anti-TWEAKR AK1D; AK1D
[3]
  Agonistic activity [%] of the TWEAK-ind. agonism (NF-kappaB reporter gene assay, HEK293): 4%
[4]
  EC50: 0.8 nM
[5]
  EC50: 0.9 nM
[6]
  Kd: 1.4 nM

B2: TPP-7005 (antibody, human IgG1, kappa, V domains shown)
VH: B1 VH with V20I, A24V, Q43K, T74K, F95Y, L115T
VL: B1 VL with G69S, Q105G
notes: also called anti-TWEAKR AK1B; AK1B
[3]
  Agonistic activity [%] of the TWEAK-ind. agonism (NF-kappaB reporter gene assay, HEK293): 0.1%
  Antagonistic activity IC50 [M] (NF-kappaB reporter gene assay in the presence of Tweak 200 ng/ml): 2e-11 M
[4]
  EC50: 0.5 nM
[5]
  EC50: 0.54 nM
[7]
  koff: 0.0018 s⁻¹
  kon: 6.8e+06 M⁻¹ s⁻¹
[6]
  Kd: 0.26 nM

B3: TPP-7075 (antibody, human IgG1, kappa, V domains shown)
VH: B1 VH
VL: B1 VL with N33S
[3]
  Agonistic activity [%] of the TWEAK-ind. agonism (NF-kappaB reporter gene assay, HEK293): 15%
  Antagonistic activity IC50 [M] (NF-kappaB reporter gene assay in the presence of Tweak 200 ng/ml): 2.4e-08 M
[4]
  EC50: 8.9 nM
[6]
  Kd: 6 nM

B4: ITEM-4 (antibody, V domains shown)
VH: QVQLQQSGPELVKPGASVKMSCKASGYTFTDFIIAWVKQRTGQGLEWIGEIYPGTGRTYYSEKFRGKATLTADKSSNTAYMQLSSLTSVDSAVYFCARRTIYYDYDGDYWGQGTTLTVSS
VL: DIVMTQAAFSNPVTLGTSASISCRSSKSLLHSNGITYLYWYLQKPGQSPQLLIYQMSNLASGVPDRFSSSGSGTDFTLRISRVEAEDVGVYYCAHNLELPWTFGGGTKLELK
notes: Murine IgG2b, bought (eBioscience 13-9018); also called anti-TWEAKR AK1A; AK1A
[3]
  Agonistic activity [%] of the TWEAK-ind. agonism (NF-kappaB reporter gene assay, HEK293): 14%
[6]
  Kd: 0.7 nM

B5: TPP-7006 (antibody, human IgG1, kappa, V domains shown)
VH: B4 VH
VL: DIVMTQAAFSNPVTLGTSASISCRSSKSLLHSNGITYLYWYLQKPGQSPQLLIYQMSNLASGVPDRFSSSGSGTDFTLRISRVEAEDVGVYYCAHNLELPWTFGGGTKLELKR
notes: also called anti-TWEAKR AK1C; AK1C
[3]
  Agonistic activity [%] of the TWEAK-ind. agonism (NF-kappaB reporter gene assay, HEK293): 3%
[4]
  EC50: 0.54 nM
[5]
  EC50: 0.83 nM
[6]
  Kd: 0.33 nM
